Source: PMC1180670

How the values were obtained:
[1] = target: recombinant S.pombe Translin (S. pombe); assay: glycerol gradient centrifugation
[2] = tested on: S. pombe Translin (Schizosaccharomyces pombe); assay: EMSA
[3] = target: human Translin (Homo sapiens, UniProt Q15631 1-228); assay: EMSA
Chain of human Translin (Q15631 whole entry): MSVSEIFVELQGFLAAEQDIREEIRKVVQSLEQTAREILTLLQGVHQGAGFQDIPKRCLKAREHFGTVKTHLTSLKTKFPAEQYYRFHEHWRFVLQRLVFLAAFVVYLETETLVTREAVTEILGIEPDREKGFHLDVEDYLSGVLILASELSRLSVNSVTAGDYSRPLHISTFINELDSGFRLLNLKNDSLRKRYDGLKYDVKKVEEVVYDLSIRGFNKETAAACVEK

| Molecule | Kd [2] [nM] | other results |
| --- | --- | --- |
| recombinant S.pombe Translin (natural protein) |  | stoichiometry N [1]: 8 |
| GTGTGTGTGTGTGTGTGTGTGTGTGTGTGT [d(GT)15] | 18 |  |
| GUGUGUGUGUGUGUGUGUGUGUGUGUGUGU [(GU)15] | 3 |  |
| GTGTGTGTGTGTGTGTGTGTGTGTGTGTGT (ssDNA) [d(GT)15] |  | binding signal [3]: ~2 Kd relative to (GU)15 |
